Target: T1, human PD-L1 protein (coated antigen) (human, UniProt Q9NZQ7 19-238, limits assumed)
T1 construct: Construct not described; also called PD-L1 antigen; antigenic protein PD-L1
Experiment: PE-ELISA, crude extract on coated PD-L1
Method: (1) From the cell culture dishes containing phage after 3-4 rounds of screening in Example 2, 1000 individual colonies were selected and inoculated into TB medium containing 100 μg/ml of ampicillin (1 liter of TB medium contains 2.3 g of potassium dihydrogen phosphate, 12.52 g of dipotassium hydrogen phosphate, 12 g of peptone, 24 g of yeast extract, 4 ml of glycerol), after growth to log phase, add a final concentration of […] of IPTG, culture at 28° C. overnight. (2) The crude antibody was obtained by the infiltration method, and the antibody was transferred to an antigen-coated ELISA plate and placed at room temperature for 1 hour. (3) Unbound antibody was washed away with PBST, and a mouse anti-HA tag antibody (anti-mouse anti-HA antibody, purchased from Beijing Kangwei Century Biotechnology Co., Ltd.) was added and placed at room temperature for 1 hour. (4) Unbound antibody was washed away with PBST, and anti-mouse alkaline phosphatase conjugate (goat anti-mouse alkaline phosphatase-labeled antibody, purchased from Amytech Co., Ltd.) was added and placed at room temperature for 1 hour. (5) Wash the unbound antibody with PBST, add alkaline phosphatase coloring solution, and read the absorbance at 405 nm on an ELISA apparatus. (6) When the OD value of the sample well is more than 3 times the OD value of the control well (Ratio+/−>3), it is judged as a positive clone hole. (7) The bacteria of the positive clone well were shaken in a LB liquid containing 100 μg per ml to extract a plasmid and perform sequencing.

T1 sequence (Q9NZQ7 19-238 limits assumed): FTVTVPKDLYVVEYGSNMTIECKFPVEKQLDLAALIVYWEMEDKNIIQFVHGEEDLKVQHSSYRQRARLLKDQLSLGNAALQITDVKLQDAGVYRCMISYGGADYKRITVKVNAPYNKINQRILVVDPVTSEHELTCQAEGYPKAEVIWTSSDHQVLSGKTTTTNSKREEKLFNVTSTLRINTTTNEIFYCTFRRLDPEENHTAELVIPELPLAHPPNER

Row | Binder | OD ratio (experimental group (A405 nm)/control group (A405 nm))
1 | SEQ ID NO 42 (VHH, pMECS-expressed; also called VHH numbered 42) VHH: QVQLQESGGGSVQTGGSLTLSCAASTSIYSYNYMAWFRQAPGKGREGVAAVYIGDGRPYYADSVKGRFTISPDSAKNTVYLQMNSLKPEDTAMYYCAAAPGPLSRHYWYTSANYDYWGPGTQVTVSS | > 20
2 | SEQ ID NO 54 (VHH, pMECS-expressed; also called VHH numbered 54) VHH: QVQLQESGGGSVQTGGSLRLSCAPSTSIYDNNYMAWFSQAPGKGREGVAAIYIDDGRPYYADSVKGRFTISLDSAKNTVYLQMNSLKPEDTAMYYCAAAPGPLSHNYWYTSANYDYWGQGTQVTVSS | > 20
3 | SEQ ID NO 52 (VHH, pMECS-expressed; also called VHH numbered 52) VHH: QVQLQESGGGSVQTGGSLRLSCAASTSIYSNNYMAWFRQAPGKGREGVAAVYVDDGRPYYADSVKGRFTISRDSAKNTVYLQMNSLKPEDTAMYYCAAAPGPLSRHYWYTSANYDYWGPGTQVTVSS | > 20
4 | SEQ ID NO 63 (VHH, pMECS-expressed; also called VHH numbered 63) VHH: QVQLQESGGGSVQTGGSLRLSCAASTSIYSNNYMAWFSQAPGKGREGVAAVYIDDGRPYYADSVKGRFTISLDSAKNTVYLQMNRLKPEDTAMYYCAAAPGPLSHNYWYTSANYDYWGQGTQVTVSS | > 20
5 | SEQ ID NO 60 (VHH, pMECS-expressed; also called VHH numbered 60) VHH: QVQLQESGGGSVQTGGSLRLSCAASTSIYSMNYMAWFSQAPGKGREGVAAVYIEDGRPYYADSVKGRFTISPDRAKNTVYLQMNSLKPEDTAMYYCAAAPGPLSRNYWYTSANYDYWGQGTQVTVSS | > 20
6 | SEQ ID NO 64 (VHH, pMECS-expressed; also called VHH numbered 64) VHH: QVQLQESGGGSVQTGGSLRLSCAASTSIYSNNYMAWFSQAPGKGREGVAAVYIDDGRPYYADSVKGRFTISLDSAKNTVYLQMNSLKPEDTAMYYCAATPGPLSQHYWYTSANYDYWGQGTQVTVSS | > 20
7 | SEQ ID NO 62 (VHH, pMECS-expressed; also called VHH numbered 62) VHH: QVQLQESGGGSVQAGGSLRLSCAASTSIYSNNYMAWFRQTPGKGREGVAAVYIDDGRPYYADSVKGRFTISLDSAKNTVYLQMNSLKPEDTAMYYCAAAPGPLSHDYWYTSANYDYWGPGTQVTVSS | > 20
8 | SEQ ID NO 59 (VHH, pMECS-expressed; also called VHH numbered 59) VHH: QVQLQESGGGSVQTGGSLRLSCACSTSIYSNNYMAWFSQAPGKGREGVAAVYIGDGRPYYTDSVKGRFTISLDSAKNTLYLQMNSLKPEDTAMYYCAAAPGPLSHNYWYTSANYDYWGQGTQVTVSS | > 20
9 | SEQ ID NO 76 (VHH, pMECS-expressed; also called VHH numbered 76) VHH: QVQLQESGGGSVQTGGSLRLSCAASTSIYSNNYMAWFRQVPGKGREGVAAVYIDDGRTYYADSVKGRFTISLDSAKNTVYLQMNSLKPEDTAMYYCAAAPGPLSRHYWYTSANYDYWGPGTQVTVSS | > 20
10 | SEQ ID NO 43 (VHH, pMECS-expressed; also called VHH numbered 43) VHH: QVQLQESGGGSVQTGGSLRLSCAASSSIASNNYMAWFSQAPGKGREGVAAVYIGDGRPYYADSVKGRFTISLDSAKNTVYLQMNSLKPEDTAMYYCAAAPGPLSRNYWYTSANYDYWGQGTQVTVSS | > 20
11 | SEQ ID NO 47 (VHH, pMECS-expressed; also called VHH numbered 47) VHH: QVQLQESGGGSVQTGGSLRLSCTASTSIYNNNYMAWFSQSPGKGREGVAAVYMDDGRPYYADSVKGRFTISLDSAKNTMYLQMNSLKPEDTAMYYCAAAPGPLSRNYWYTSANYDYWGQGTQVTVSS | > 20
12 | SEQ ID NO 75 (VHH, pMECS-expressed; also called VHH numbered 75) VHH: QVQLQESGGGSVQTGGSLRLSCAASTSIYSNNYMAWFRQAPGKGREGVAAVYIGDGRPYYADSAKGRFTISLDSAKNTVYLHMNSLKPEDTAMYYCAAAPGPLSRHYWYTSANYDYWGPGTQVTVSS | > 20
13 | SEQ ID NO 44 (VHH, pMECS-expressed; also called VHH numbered 44) VHH: QVQLQESGGGSVRTGGSLRLSCAASTSIYSLNYMAWFSQAPGKGREGVAAVYIDDGRPYYADHVKGRFTISLDTAKNTVYLQMNSLKPEDTAMYYCAAAPGPLSRNYWYTSANYDYWGQGTQVTVSS | > 20
14 | SEQ ID NO 67 (VHH, pMECS-expressed; also called VHH numbered 67) VHH: QVQLQESGGGSVQTGGSLRLSCTASTSIYSNNYMAWFSQAPGKGREGVAAVYIDDGRPYYADSVKGRFTISLDSAKNTVYLQMNSLKPEDTAMYYCAAAPGPLSRNYWYTSANYDYWGQGTQVTVSS | > 20
15 | SEQ ID NO 56 (VHH, pMECS-expressed; also called VHH numbered 56) VHH: QVQLQESGGGSVQTGGSLRLSCAASPSIYSANYMAWFSQAPGKGREGVAAVYIGDGRPYYADSVKGRFTISLDSAKSTVYLQMNSLKPEDTAMYYCAAAPGPLSHNYWYTSANYDYWGQGTQVTVSS | > 20
16 | SEQ ID NO 46 (VHH, pMECS-expressed; also called VHH numbered 46) VHH: QVQLQESGGGSVQTGGSLRLSCAASTSIDSNNYMAWFRQAPGKGREGVAAVYIDDGRPYYADSVKGRFTISLDSAKNTVYLQMNSLKPEDTAMYYCAAAPGPLSRHYWYTSANYDYWGPGTQVTVSS | > 20
17 | SEQ ID NO 53 (VHH, pMECS-expressed; also called VHH numbered 53) VHH: QVQLQESGGGSVQTGGSLRLSCAASTSIYSNNYMAWFSQAPGKGREGVAAVYIDDGRPYYADSVKGRFTISLDSAKNTVYLQMNSLKPEDTAMYYCAAAPGPLSRNYWYTSANYDYWGQGTQVTVSS | > 20
18 | SEQ ID NO 55 (VHH, pMECS-expressed; also called VHH numbered 55) VHH: QVQLQESGGGSVQTGGSLRLSCVASTSIFSNNYMAWFSQAPGKGREGVAAVYIGDGRPYYADSVKGRFTISLDSAKNTVYLQMNSLKPEDTAMYYCAAAPGPLSHNYWYTSANYDYWGQGTQVTVSS | > 20
19 | SEQ ID NO 57 (VHH, pMECS-expressed; also called VHH numbered 57) VHH: QVQLQESGGGSVQTGGSLRLSCAASTSIYSINYMAWFSQAPGKGREGVAAVYIDDGRPYYADSVKGRFTISLDSAKNTVYLQMNSLKSEDTAMYYCAAAPGPLSRNYWYTSANYDYWGQGTQVTVSS | > 20
20 | SEQ ID NO 49 (VHH, pMECS-expressed; also called VHH numbered 49) VHH: QVQLQESGGGSVQTGGSLRLSCAASTSIYSINYMAWFSQAPGKGREGVAAVYIDDGRPYYADSVKGRFTISLDSAKNTVYLQMNSLKPEDTAMYYCAAAPGPLSRNYWYTSANYDYWGQGTQVTVSS | > 20
21 | SEQ ID NO 66 (VHH, pMECS-expressed; also called VHH numbered 66) VHH: QVQLQESGGGSVQTGGSLRLSCAASTSIYNNNYMAWFSQAPGKGREGVAAVYVGDGRTYYADSVKGRFTISLDSAKNTVYLQMNSLKPEDTAMYYCAAAPGPLSHNYWYTSANYDYWGQGTQVTVSS | > 20
22 | SEQ ID NO 48 (VHH, pMECS-expressed; also called VHH numbered 48) VHH: QVQLQESGGGSVQTGGSLRLSCAASTSIYSNNYMAWFSQAPGKGREGVAAVYIDDGRTYYADSVKGRFTISLDSAKNTVYLQMNSLKPEDTAMYYCAAAPGPLSHNYWYASANYDYWGQGTQVTVSS | > 20
23 | SEQ ID NO 68 (VHH, pMECS-expressed; also called VHH numbered 68) VHH: QVQLQESGGGSVQTGGSLRLSCTCSTSIYSNNYMAWFSQAPGKGREGVAAVYIGDGRPYYADSVKGRFTISLDSAKNTVYLQMNSLKPEDTAMYYCAAAPGPLSHNYWYTSANYDYWGQGTQVTVSS | > 20
24 | SEQ ID NO 77 (VHH, pMECS-expressed; also called VHH numbered 77) VHH: QVQLQESGGGSVQTGGSLRLSCTASTSIYSNNYMAWFSQAPGKGREGVAAVYIDDGRPYYADSVKGRFTISLDSAKNTVYLQMNSLKPEDTAMYYCAAAPGPLSRNYWYTSANYDYWGQGTQVTVSS | > 20
25 | SEQ ID NO 69 (VHH, pMECS-expressed; also called VHH numbered 69) VHH: QVQLQESGGGSVQTGGSLRLSCAASTSIYSNNYMAWFSQAPGKGREGVAAVYIGDGRPYYADSVKGRFTISLDSAKNTVYLQMNSLKPEDTAMYYCAAAPGPLSHNYWYTSANYDYWGQGTQVTVSS | > 20
26 | SEQ ID NO 51 (VHH, pMECS-expressed; also called VHH numbered 51) VHH: QVQLQESGGGSVQTGGSLRLSCTASTSIYSNSYMAWFSQAPGKGREGVAAVYIDDGRPYYADSVKGRFTISLDSAKNTVYLQMNSLKPEDTAMYYCAAAPGPLSRHYWYTSANYDYWGQGTQVTVSS | > 20

— patent US20190177416A1 (NANOMAB TECHNOLOGY, published 2019)
